Experimental data published in patent US20240025997A1.

B1: anti-ILT2/ILT4 antibody 47H6 (antibody, V domains shown)
VH: EVQLQQSGPELVKPGASVKISCKASGYTFTDYYMNWVKQSHGKSLEWIGDFNPNNGGTTYNQKFEGKATLTVDKSSNTAYMDLRSLTSEDSAVYYCARGRFYYGSLYSFDYWGQGTTLTVSS
VL: DIQMTQSPASLSASVGETVTITCRASGNIHNYLAWYQQKQGKSPHLLVYNAKTLADGVPSRFSGSGSGTQYSLKINNLQPEDFGSYYCQHFWTSITFGAGTKLDLK
B2: anti-ILT4 antibody 47C8 (antibody, V domains shown)
VH: EVQLQQSGPDLVKPGASVKISCKASGYSFTGYYMHWVKQSHGKSLEWIGRVYPNNGDTSYNQKFKVKAILTVDKSSSTAYMELRSLTSEDSAVYYCARGATVVESLFAYWGQGTLVTVSA
VL: DIVLTQSPASLAVSLGQRATISCRASESVDNYGNNFLHWYQQKPGQPPKLLIYRTSNLESGIPARFSGSGSRTDFTLTINPVEADDVATYYCQQSNEDPYTFGGGTKLEIK
B3: anti-ILT2 antibody 27F9 (antibody, V domains shown)
VH: QVQLKESGPGLVAPSQSLSITCTVSGFSLTNYGVSWVRQPPGKGLEWLGIIWGDGSTNYHSALISRLSISKDNSKSQVFLKLNSLQADDTATYYCAKPNWDTYAMDFWGQGTSVTVSS
VL: DIQMTQTTSSLSASLGDRVTISCRASQDISNFLNWYQQKPDGTVKLLIYCTSKLHSGVPSRFSGSGSETDYSLTISNLEQEDIATYFCQQGNTLPPTFGGGTKLEII
B4: anti-ILT4 antibody 48A5 (antibody, V domains shown)
VH: QIQLVQSGPELKKPGETVKISCKASGYTFTNYGMNWVKQAPGKGLKWMGWINTYIGEPIYADDFKGRFAFSLETSASTAYLQINNLKNEDMATYFCARRSDYDGYAMDYWGQGTSVTVSS
VL: DIVMSQSPSSLAVSVGERVTMSCKSSQSLLYSGNQKNYLAWYQQKPGQSPKLLIYWASTRESGVPDRFTGSGSGTDFTLTISSVKAEDLAVYYCQQHDSYPTFGGGSRLEIK
B5: anti-ILT2/ILT4 antibody 73D1 (antibody, V domains shown)
VH: AVQLQQSGPELVKPGASVKISCKASGYTFTDYYINWVKQSHGKSLQWIGNVNPNDGGTTYNQKFKGKATLTVDKSSSTAYMELRSLTSEDSAVYYCARREIYFYGTIYYYAMDYWGQGTSVTVSS
VL: DIVLTQSPASLAVSLGQRATISCRASESVDYYGNSFMYWYQQKPGRPPNLLIYFASNLESGVPARFSGSGSRTDFTLTIDPVEADDAATYYCQQNNEDPWTFGGGTKLEIK
B6: anti-ILT2/ILT4 antibody 64A12 (antibody, V domains shown)
VH: EVQLVESGGGLVQPKGSLKLSCAASGFTFNTYAMHWVRQAPGKGLEWVARIRSKSSNYATYYADSVKDRFTISRDDSQSMLYLQMNNLKTEDTAMYYCVRDGIYYYDTMYYYAMDYWGQGTSVTVSS
VL: NIVLTQSPASLAVSLGQRATISCRASESVDYYGNSFIYWYQQKPGQPPKLLIYFASNLESGVPARFSGSGSRTDFTLTIDPVEAADAASYYCQQNNEDPWTFGGGTKLEIK
B7: anti-ILT2/ILT4 antibody 51A1 (antibody, V domains shown)
VH: EVQLVESGGGLVQPKGSLKLSCAASGFTFNTYAMHWVRQAPGKGLEWVARIRSKSSNYATYYADSVKDRFTISRDDSQSMLYLQMNNLKTEDTAMYYCVRDGIYYYGTMYYYAMDYWGQGTSVTVSS
VL: NIVLTQSPASLAVSLGQRATISCRASESVDYYGNSFMYWYQQKPGQPPKLLIYFASNLESGVPARFSGSGSRTDFTLTIDPVEAADAASYYCQQNNEDPWTFGGGTKLEIK
B8: anti-ILT2/ILT4 antibody 73C4 (antibody, V domains shown)
VH: AVQLQQSGPELVKPGASVKISCKASGYTFTDYYMNWVKQSHGKSLEWIGNVNPNNGGTSYNQKFKGKATLTVDKSSSTAYMELRSLTSEDSAVYYCARREIYFYGTIYYYAMDYWGQGTSVTVSS
VL: DIVLTQSPASLAVSLGQRATISCRASESVDYYGNSFMYWYQQKPGRPPNLLIYFASNLESGVPARFSGSGSRTDFTLTIDPVEADDAATYYCQQNNEDPWTFGGGTKLEIK
B9: humanized anti-ILT2/ILT4 antibody Hz73D1.v1 (antibody, human IgG1, kappa, N297G, V domains shown)
VH: QVQLVQSGAEVKKPGASVKVSCKASGYTFTDYYINWVRQAPGQGLEWMGNVNPNDGGTTYNQKFKGRVTMTTDTSTSTAYMELRSLRSDDTAVYYCARREIYFYGTIYYYAMDYWGQGTLVTVSS
VL: DIQLTQSPSFLSASVGDRVTITCRASESVDYYGNSFMYWYQQKPGKAPKLLIYFASNLESGVPSRFSGSGSGTEFTLTISSLQPEDFATYYCQQNNEDPWTFGGGTKVEIKR

Legend:
[1] = target: soluble rhesus ILT2-ECD (rhesus macaque); experiment: SPR (Biacore), antibody captured on Protein A chip, soluble rhesus ILT2-ECD injected, 25 C, low resolution parameters
soluble rhesus ILT2-ECD (rhesus macaque), sequence (chain, as listed by the source limits assumed, form in doubt): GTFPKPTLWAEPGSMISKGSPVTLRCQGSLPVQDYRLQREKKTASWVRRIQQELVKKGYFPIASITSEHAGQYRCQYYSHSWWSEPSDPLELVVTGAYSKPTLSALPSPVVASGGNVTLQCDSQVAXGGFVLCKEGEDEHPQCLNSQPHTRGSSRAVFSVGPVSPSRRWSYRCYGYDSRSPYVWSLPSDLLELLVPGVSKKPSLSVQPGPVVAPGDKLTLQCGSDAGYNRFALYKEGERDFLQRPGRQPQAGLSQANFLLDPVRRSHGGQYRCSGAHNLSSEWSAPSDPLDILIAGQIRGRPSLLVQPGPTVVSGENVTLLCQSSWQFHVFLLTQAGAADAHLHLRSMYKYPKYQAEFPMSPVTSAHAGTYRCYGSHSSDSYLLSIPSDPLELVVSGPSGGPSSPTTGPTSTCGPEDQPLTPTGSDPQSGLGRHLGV

[2] = target: soluble rhesus ILT2-ECD (rhesus macaque); experiment: SPR (Biacore), antibody captured on Protein A chip, soluble rhesus ILT2-ECD injected (1.6-200 nM), 25 C
[3] = target: human ILT2 chimeric reporter receptor (ILT2 extracellular domain fused to PILRbeta transmembrane/intracellular domain) (human), Q8NHL6
human ILT2 chimeric reporter receptor (ILT2 extracellular domain fused to PILRbeta transmembrane/intracellular domain) (human), Q8NHL6, sequence (Q8NHL6 24-461 limits assumed, change not shown): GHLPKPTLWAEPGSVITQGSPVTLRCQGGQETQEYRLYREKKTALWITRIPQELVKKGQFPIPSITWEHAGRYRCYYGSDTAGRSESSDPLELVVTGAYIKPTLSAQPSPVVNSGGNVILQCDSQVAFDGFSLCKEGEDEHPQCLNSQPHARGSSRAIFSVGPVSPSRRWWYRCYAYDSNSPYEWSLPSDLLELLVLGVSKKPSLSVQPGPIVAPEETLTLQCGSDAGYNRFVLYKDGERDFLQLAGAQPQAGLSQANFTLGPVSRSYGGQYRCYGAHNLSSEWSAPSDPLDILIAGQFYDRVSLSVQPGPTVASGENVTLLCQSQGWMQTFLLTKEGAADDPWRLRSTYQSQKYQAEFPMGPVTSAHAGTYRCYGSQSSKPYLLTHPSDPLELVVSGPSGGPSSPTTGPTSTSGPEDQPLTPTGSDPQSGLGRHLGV

[4] = target: T1, human ILT4 chimeric reporter receptor (ILT4 extracellular domain fused to PILRbeta transmembrane/intracellular domain) (human), Q8N423
T1 sequence (Q8N423 other isoform, or with tags, fused parts or gaps mutant limits assumed): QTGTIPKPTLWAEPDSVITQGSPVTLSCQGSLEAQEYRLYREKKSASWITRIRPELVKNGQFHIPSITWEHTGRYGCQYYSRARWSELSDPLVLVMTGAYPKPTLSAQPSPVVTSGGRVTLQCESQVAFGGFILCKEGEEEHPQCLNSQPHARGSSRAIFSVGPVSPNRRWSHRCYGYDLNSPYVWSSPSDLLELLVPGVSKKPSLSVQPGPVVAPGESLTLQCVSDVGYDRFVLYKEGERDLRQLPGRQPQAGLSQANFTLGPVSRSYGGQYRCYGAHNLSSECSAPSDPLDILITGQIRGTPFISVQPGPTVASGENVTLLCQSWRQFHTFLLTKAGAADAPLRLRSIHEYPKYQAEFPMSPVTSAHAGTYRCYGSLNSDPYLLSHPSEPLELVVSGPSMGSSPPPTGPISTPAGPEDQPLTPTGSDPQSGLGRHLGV

[5] = target: T1, human ILT4 chimeric reporter receptor …; remark: listed apart in the source
[6] = target: cyno ILT2 chimeric reporter receptor (cyno ILT2 extracellular domain fused to PILRbeta transmembrane/intracellular domain) (cynomolgus monkey)
[7] = target: ILT2 and/or ILT4 on human CD14+ monocytes; experiment: flow cytometry, fluorescently labelled antibody on CD14+ monocytes of human PBMC, donor Human 2, geometric MFI
[8] = target: ILT2 and/or ILT4 on human CD14+ monocytes; experiment: flow cytometry, fluorescently labelled antibody on CD14+ monocytes of human PBMC, donor Human 1, geometric MFI
[9] = target: soluble rhesus ILT2-ECD (rhesus macaque); experiment: SPR (Biacore), antibody captured on Protein A chip, soluble rhesus ILT2-ECD injected, 25 C, low resolution parameters; low resolution parameters
[10] = target: cynomolgus monkey ILT2 (protein injected in Biacore) (cynomolgus monkey); experiment: SPR (Biacore), antibody captured on Protein A chip, ILT protein injected, 25 C
cynomolgus monkey ILT2 (protein injected in Biacore) (cynomolgus monkey), sequence (chain, as listed by the source limits assumed, form in doubt): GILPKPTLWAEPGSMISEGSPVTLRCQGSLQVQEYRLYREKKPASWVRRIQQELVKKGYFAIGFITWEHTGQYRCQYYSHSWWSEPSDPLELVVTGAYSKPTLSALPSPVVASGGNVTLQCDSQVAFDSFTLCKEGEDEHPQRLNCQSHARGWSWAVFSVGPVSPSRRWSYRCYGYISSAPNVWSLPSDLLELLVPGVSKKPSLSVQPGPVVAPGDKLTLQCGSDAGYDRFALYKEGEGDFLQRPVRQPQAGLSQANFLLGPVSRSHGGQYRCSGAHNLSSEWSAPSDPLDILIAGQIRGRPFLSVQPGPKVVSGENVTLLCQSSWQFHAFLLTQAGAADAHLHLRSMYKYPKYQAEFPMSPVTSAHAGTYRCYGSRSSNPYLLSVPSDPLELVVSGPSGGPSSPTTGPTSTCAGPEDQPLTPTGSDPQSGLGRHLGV

[11] = target: ILT2 and/or ILT4 on human CD14+ monocytes; experiment: flow cytometry, fluorescently-labelled antibody on CD14+ monocytes of human PBMC

Row | Binder | Kd [1] [nM] | koff [1] [s⁻¹] | Kd [2] [nM] | koff [2] [s⁻¹] | kon [2] [M⁻¹ s⁻¹] | other results
1 | B1 | < 0.1 | 1e-05 |  |  |  | kon [1]: 47000 M⁻¹ s⁻¹
2 | B2 |  |  | 2.3 | 0.0014 | 590000 | 
3 | B3 |  |  |  |  |  | IC50 (read off the curve), %GFP+ human ILT2 reporter cells co-cultured with Raji cells [3]: 0.04 nM
4 | B4 |  |  | 2.3 | 0.0026 | 1.1e+06 | IC50 (read off the curve), %GFP+ human ILT4 reporter cells co-cultured with Raji cells [4]: 0.02 nM; IC50 (read off the curve), %GFP+ human ILT4 reporter cells co-cultured with 721.221-HLA-G cells [5]: 0.02 nM
5 | B5 |  |  | 1.2 | 6e-05 | 50000 | IC50 (read off the curve), %GFP+ human ILT2 reporter cells co-cultured with Raji cells [3]: 0.2 nM; IC50 (read off the curve), %GFP+ human ILT4 reporter cells co-cultured with Raji cells [4]: 0.07 nM; IC50 (read off the curve), %GFP+ cyno ILT2 reporter cells co-cultured with Raji cells [6]: 0.04 nM; EC50 (read off the curve) [7]: 5 nM; EC50 (read off the curve) [8]: 4 nM
6 | B6 | < 0.1 | 1e-05 |  |  |  | kon [9]: 20000 M⁻¹ s⁻¹
7 | B7 |  |  | 0.2 | 2.1e-05 | 100000 | 
8 | B8 | < 0.1 | 1e-05 |  |  |  | kon [1]: 31000 M⁻¹ s⁻¹
9 | B9 |  |  |  |  |  | Kd [10]: 19.1 nM; koff [10]: 0.06 s⁻¹; kon [10]: 3.4e+06 M⁻¹ s⁻¹; EC50 [11]: 8.8 nM
